Target: T1, GST-HDC (human histidine decarboxylase, amino acid residues 1-477, fused to GST) (human, UniProt P19113 1-477)
T1 sequence: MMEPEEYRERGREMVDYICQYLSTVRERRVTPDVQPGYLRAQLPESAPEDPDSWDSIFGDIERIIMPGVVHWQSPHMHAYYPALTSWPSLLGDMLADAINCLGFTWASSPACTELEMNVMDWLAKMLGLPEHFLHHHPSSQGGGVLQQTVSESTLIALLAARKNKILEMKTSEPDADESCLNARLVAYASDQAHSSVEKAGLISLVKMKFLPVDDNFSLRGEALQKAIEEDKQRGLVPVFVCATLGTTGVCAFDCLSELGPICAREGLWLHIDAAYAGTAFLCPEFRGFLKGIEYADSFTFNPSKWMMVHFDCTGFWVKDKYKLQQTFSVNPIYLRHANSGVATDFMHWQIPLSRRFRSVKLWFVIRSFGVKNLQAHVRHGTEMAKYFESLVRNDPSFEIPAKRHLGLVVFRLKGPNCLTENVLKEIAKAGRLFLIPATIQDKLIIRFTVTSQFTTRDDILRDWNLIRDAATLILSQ
Assay: cell-based or functional assay

- IC50 (inhibition of HDC enzyme activity, standard fluorescence polarization HDC assay): 228 µM
B1: dipeptide histidine-phenylalanine (peptide)
peptide: HF
